Assay results taken from paper PMC6471214.

Assays:
Biotinylated tubulin [1] = target: Biotinylated tubulin (UniProt P02550); test: LSPR (extinction maximum wavelength of gold nanoparticles) + fluorescence microscopy; short MT sample: biotinylated tubulin (7% of the tubulin mix, with 4% Rhodamine-labeled tubulin) held on 80 nm biotin-PEG AuNPs through neutravidin; BRB80 pH 6.8, 0.025% Tween 20; GMPCPP, 37 °C for 30 min; stabilised with 10 µM paclitaxel; spectra at room temperature
Biotinylated tubulin [2] = target: Biotinylated tubulin (UniProt P02550); test: LSPR (extinction maximum wavelength of gold nanoparticles) + fluorescence microscopy; long MT sample: as the short MT sample, then 10 volumes of 4 µM tubulin (4% Rhodamine-labeled) with 0.5 mM GMPCPP added, 20 more min at 37 °C before paclitaxel

- λmax (LSPR extinction maximum wavelength) (Biotinylated tubulin [1]): 553 nm
- λmax (LSPR extinction maximum wavelength) (Biotinylated tubulin [2]): 553 nm
Substance: Porcine tubulin (α/β-tubulin heterodimer subunits) (from UniProt P02550 1-451; P02554 1-445) (complex)
